Legend:
[1] = molecular target: human mutant CSF-1R L301S Y969F (human) (UniProt P07333); experiment: cell-based or functional assay
[2] = molecular target: human wildtype CSF-1R (wt CSF-1R) (human, UniProt P07333 20-972); experiment: cell-based or functional assay

With “goat polyclonal anti-CSF-1R antibody ab10676 (abcam)” the Mutant CSF-1R IC30 (cell viability of NIH3T3 mutant CSF-1R spheroids, CellTiterGlo) [1] was > 20 µg/mL, the inhibition of cell viability at 20 µg/ml (mutant CSF-1R spheroids) [1] was 0% and the wtCSF-1R IC30 (cell viability of NIH3T3-CSF-1R spheroids, CellTiterGlo) [2] was 14.2 µg/mL.

Source: patent US20170051065A1 (Hoffmann-La Roche, published 2017)
